Experimental data published in publication PMC5623693, “Rb‐independent E2F3 promotes cell proliferation and alters expression of genes involved in metabolism and inflammation” (FEBS Open Bio, 2017).
No end group written: not given here. *: point of attachment. 5‑TAMRA = CN(C)c1ccc2c(-c3ccc(C(=O)*)cc3C(=O)[O-])c3ccc(N(C)C)cc3[o+]c2c1

Legend:
Assay in all cases: fluorescence polarisation; TAMRA-labeled peptide (100 nM stock, 1 uL in 10 uL final) with purified protein serially diluted 1:2; 20 mM HEPES, 100 mM KCl, 0.1% Tween-20, 5 mM DTT, pH 7.8; 20 min in the dark at room temperature; Kd by Michaelis-Menten equation, least-squares nonlinear regression
[1] = target: Tamra-labeled E2F1-mutant peptide (L415Q) (human)
[2] = target: Tamra-labeled E2F1 WT peptide (human)
GST-pRb (aa379-928) = target: T1, GST-pRb (aa379-928) (UniProt P06400 379-928); details: both partners purified
T1 construct: retinoblastoma protein pRb, residues 379-928
T1 sequence (looked up): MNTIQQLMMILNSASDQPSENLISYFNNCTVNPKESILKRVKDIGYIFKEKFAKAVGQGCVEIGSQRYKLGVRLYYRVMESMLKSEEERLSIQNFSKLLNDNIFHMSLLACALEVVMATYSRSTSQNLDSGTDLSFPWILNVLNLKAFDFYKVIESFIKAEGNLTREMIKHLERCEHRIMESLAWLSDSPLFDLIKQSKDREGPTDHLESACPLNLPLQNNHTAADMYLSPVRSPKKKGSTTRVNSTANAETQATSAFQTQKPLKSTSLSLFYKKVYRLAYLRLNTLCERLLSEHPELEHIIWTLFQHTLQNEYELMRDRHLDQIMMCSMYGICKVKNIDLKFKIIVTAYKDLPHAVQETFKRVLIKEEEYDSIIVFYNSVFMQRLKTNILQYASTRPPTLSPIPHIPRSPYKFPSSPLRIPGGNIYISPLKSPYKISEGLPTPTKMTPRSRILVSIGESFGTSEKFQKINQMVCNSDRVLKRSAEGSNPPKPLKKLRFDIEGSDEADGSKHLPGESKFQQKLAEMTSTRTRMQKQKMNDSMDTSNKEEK

HIS-p107 (aa379-1104) (domain or fragment)
Kd [1]: 200 µM | Kd [2]: 7 µM

B1: Tamra-labeled E2F1 WT peptide (peptide)
peptide: {5‑TAMRA}-EALDYHFGLEEGEGIRDLFDCDFG
notes: L415 is the ninth letter; also called WT E2F1 peptide; E2F1 C-terminal peptide; source: synthetic peptide (United BioSystems)
Kd (GST-pRb (aa379-928)): ~3 µM

B2: Tamra-labeled E2F1-mutant peptide (L415Q) (peptide)
peptide: {5‑TAMRA}-EALDYHFGQEEGEGIRDLFDCDFG
notes: also called E2F1 L415Q peptide; LQ; source: synthetic peptide (Peptide 2.0)
Kd (GST-pRb (aa379-928)): 20 µM
